This experiment has as its target EGFR (ミズーリ州セントルイス、シグマ社) (UniProt P00533). Kind of experiment: SPR (BIACORE X), fusion protein amine-coupled to the chip, 10-100 nM EGFR in flow. Background: SPR reads the build-up and loss of mass on a sensor chip optically.

Broadly, the Kd is the constant that tells how readily two partners part at equilibrium. Read a low Kd as a tighter complex.

B1: celB+Lama glama由来の抗EGFRのVHH抗体+Hisタグ融合タンパク質 (VHH, not shown: small tags and cut ends)
chain: QQVGTTADAHPRLTTYKCTSQNGCTRQNTSLVLDAATHFIHKKGTQTSCTNSNGLDTAICPDKQTCADNCVVDGITDYASYGVQTKNDTLTLQQYLQTGNATKSLSPRVYLLAEDGENYSMLKLLNQEFTFDVDASTLVCGMNGALYLSEMEASGGKSSLNQAGAKYGTGYCDAQCYTTPWINGEGNTESVGSCCQEMDIWEANARATGLTPHPCNTTGLYECSGSGCGDSGVCDKAGCGFNPYGLGAKDYYGYGLKVNTNETFTVVTQFLTNDNTTSGQLSEIRRLYIQNGQVIQNAAVTSGGKTVDSITKDFCSGEGSAFNRLGGLEEMGHALGRGMVLALSIWNDAGSFMQWLDGGSAGPCNATEGNPALIEKLYPDTHVKFSKIRWGDIGSTYRHQVQLVESGGGLVQAGDSLRLSCVDSGRDFSDYVMGWFRQAPGKEREFVAAISRNGITTRYADSVKGRFTISRDNDKNTVYLQMNSLKPEDTAVYYCATNSAGTYVSPRSRDYDGWGQGTQVTVSS
For B1, the Kd worked out at 14.7 nM.

These data come from patent JP2012157315A.
